Results taken from publication PMC8188405, “When is an obscurin variant pathogenic? The impact of Arg4344Gln and Arg4444Trp variants on protein–protein interactions and protein stability” (Human Molecular Genetics, 2021).
Numbering of substitutions follows the chain as printed. Names and notes keep the numbering of the source.

T1: titin Z8-Z9 (human, UniProt Q8WZ42-12 1698-1931)
T1 construct: titin, human, domains Z8-Z9, residues 1698 to 1931 based on NM_001267550/NP_001254479 (transcript variant IC); numbers count on: transcript variant IC; The vector encodes His6 followed by a TEV cleavage site; no cleavage is described; source: E. coli BL21-CodonPlus (DE3)-RIPL, purified (Ni-NTA)
T1 sequence (looked up): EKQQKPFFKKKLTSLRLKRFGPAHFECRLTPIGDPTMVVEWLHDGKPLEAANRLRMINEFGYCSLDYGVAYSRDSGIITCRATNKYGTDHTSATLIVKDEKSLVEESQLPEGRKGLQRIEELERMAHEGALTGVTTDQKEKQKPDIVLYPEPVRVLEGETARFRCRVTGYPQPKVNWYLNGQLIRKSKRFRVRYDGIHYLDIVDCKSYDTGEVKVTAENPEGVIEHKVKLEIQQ

B1: obscurin Ig58-Ig59 (wild type) (domain or fragment, human, UniProt Q5VST9 4337-4521, looked up)
chain: TAKNTVVRGLENVEALEGGEALFECQLSQPEVAAHTWLLDDEPVHTSENAEVVFFENGLRHLLLLKNLRPQDSCRVTFLAGDMVTSAFLTVRGWRLEILEPLKNAAVRAGAQACFTCTLSEAVPVGEASWYINGAAVQPDDSDWTVTADGSHHALLLRSAQPHHAGEVTFACRDAVASARLTVLG
modifications: labelled with the Monolith NT Protein Labeling kit RED-NHS (in the MST experiments only)
notes: obscurin, human, domains Ig58-Ig59, residues 4337-4521 based on NM_001098623/NP_001092093 (transcript variant B); The vector encodes His6 followed by a TEV cleavage site; no cleavage is described; The His6 tag holds the protein on Ni-NTA beads in the pull-downs; also called Ig58-Ig59WT; O5859; source: E. coli BL21-CodonPlus (DE3)-RIPL, purified (Ni-NTA); not shown: His6, N-terminal, kept
B2: obscurin Ig58-Ig59 R4444W (domain or fragment, human, UniProt Q5VST9 4337-4521, looked up)
chain: B1 chain with R108W
modifications: labelled with the Monolith NT Protein Labeling kit RED-NHS
notes: The variant occurs in the human population; also called R4444W variant; Arg4444Trp; source: E. coli BL21-CodonPlus (DE3)-RIPL, purified (Ni-NTA)
B3: phospholamban transmembrane region PLN(23-52) (peptide, UniProt P26678 23-52, looked up)
chain: QARQKLQNLFINFCLILICLLLICIIVMLL
notes: phospholamban, human, transmembrane region, residues 23-52 (synthetic); source: synthetic peptide, bought: Pepscan
B4: obscurin Ig58-Ig59 R4344Q, A4484T double variant (domain or fragment, human, UniProt Q5VST9 4337-4521, looked up)
chain: B1 chain with R8Q, A148T
modifications: labelled with the Monolith NT Protein Labeling kit RED-NHS
notes: source: E. coli BL21-CodonPlus (DE3)-RIPL, purified (Ni-NTA)
B5: obscurin Ig58-Ig59 R4344Q (domain or fragment, human, UniProt Q5VST9 4337-4521, looked up)
chain: B1 chain with R8Q
modifications: labelled with the Monolith NT Protein Labeling kit RED-NHS (in the MST experiments only)
notes: The variant occurs in the human population (found in up to 15% of African Americans); also called R4344Q variant; Arg4344Gln; source: E. coli BL21-CodonPlus (DE3)-RIPL, purified (Ni-NTA); not shown: His6, N-terminal, kept
B6: human full-length phospholamban (peptide, UniProt P26678 1-52, looked up)
chain: MEKVQYLTRSAIRRASTIEMPQQARQKLQNLFINFCLILICLLLICIIVMLL
notes: phospholamban, human, full length (synthetic); Kept in buffer with Triton X-100; seen on gels as monomeric and pentameric bands, both of which were pulled down by Ig58-Ig59; also called PLN; source: synthetic peptide, bought: Pepscan

Columns and labels:
titin Z8-Z9 = molecular target: T1, titin Z8-Z9; assay: MST; obscurin Ig58-Ig59 labelled with RED-NHS (typically 50-100 nM); unlabelled titin Z8-Z9 or ObB diluted serially; PBS, 2 mM DTT; Monolith NT.115; one-site binding model; conditions: both partners purified
[1] = molecular target: B1; assay: MST; obscurin Ig58-Ig59 labelled with RED-NHS (typically 50-100 nM); unlabelled PLN peptides diluted serially; PBS, 0.2% (v/v) Triton X-100, 2 mM DTT; Monolith NT.115; one-site binding model; conditions: both partners purified

Binder | Kd (titin Z8-Z9) [µM] | Kd [1] [µM] | other results
B1 | 7.8 |  | 
B2 | 6.4 |  | 
B3 |  | 58.5 | 
B4 |  |  | binding result (titin Z8-Z9): binds
B5 | 6.6 |  | 
B6 |  | 18.9 | 
